Data set [1] concerns the molecule itself. The experiment in a line: cryo-EM structure.
Data set [2] has as its target T1, gB-Ecto.H516P.L531E.DS (Human alphaherpesvirus 1, strain KOS, H516P | L531E | A240C | E607C).
T1 construct: also called gB-Ecto.H516P.L531E.A240C+E607C (DS); gB-Ecto.516P.531E.DS; not shown: 8xHis-Tag, C-terminal, kept
In words: SPR. The note with it: both partners purified.

For data set [3], the target named is T2, gB-Ecto.H516P.L531E (Human alphaherpesvirus 1, strain KOS, H516P | L531E).
T2 construct: also called gB-Ecto.516P.531E; prefusion gB; not shown: 8xHis-Tag, C-terminal, kept
In words: SPR. The following applies: both partners purified.

For data set [4], the target named is T3, HSV-1 gB on infectious HSV-1 virions (Human alphaherpesvirus 1 (HSV-1), …, UniProt P06437).
T3 construct: also called authentic live virus; source: HSV-1 MacIntrye (VR-539; ATCC) propagated in Vero cells, virions purified by ultracentrifugation with a 25% sucrose cushion
In words: ELISA; virion-binding ELISA: plates coated with purified authentic live HSV-1 at 50,000 infectious particles per well; monoclonal antibodies in fivefold dilutions from 20 µg/ml. The following applies: one partner purified. (In an ELISA, binding on a coated surface is turned into a signal by an enzyme label.)

B1: gB-Ecto.H516P.L531E (HSV-1 glycoprotein B ectodomain stabilized in the prefusion conformation) (domain or fragment)
chain: not shown
modifications: N-linked glycans (densities seen at 141, 398, 430 and 674)
notes: also called H516P + L531E ectodomain; prefusion gB
Usually stoichiometry N stands for a count of units in the complex or per binding partner. Turning to B1, the “stoichiometry N” value in data set [1] is 3.

B2: WS.HSV-1.24 Fab (Fab, V domains shown)
VH: QVQLKESGPGLVAPSQSLSITCTVSGFSLTTYGVTWVRQPPGKGLEWLGVIWGDGSTNYHSDLISRLSITKDNSKSQVFLKLSSLQADDTATYYCVSYYGYFDHWGQGTTLTVSS
VL: DIQMTQSPSSLSASLGERVSLTCRASQDIGSSLNWLQQKPDGTIKRLIYATSSLDSGVPKRFSGSRSGSDYSLTISSLESEDFVDYYCLQYASSPPTFGGGTKLEIK
notes: also called WS.HSV-24; source: IgG expressed in Expi293F and purified; reduced and alkylated, digested with immobilized papain; Fab purified (protein G negative selection, Superdex 75 gel filtration)
The Kd is the equilibrium constant for the complex coming apart. Read a low Kd as higher affinity. Regarding B2, the Kd is 1.86 nM in data set [2] and 3.2 nM in data set [3].

B3: WS.HSV-1.24 IgG (antibody, V domains shown)
VH: B2 VH
VL: B2 VL
notes: also called WS.HSV-24; source: Expi293F, purified (variable genes cloned into pVRC8400 with species-specific constant regions)
As to B3, the binding result in data set [4] was “binds”.

The record behind these values is publication PMC12578645 (Nature Microbiology, 2025).
